# T1: MBP-COP1 (Arabidopsis thaliana, UniProt P43254 1-675)
# T1 sequence (looked up): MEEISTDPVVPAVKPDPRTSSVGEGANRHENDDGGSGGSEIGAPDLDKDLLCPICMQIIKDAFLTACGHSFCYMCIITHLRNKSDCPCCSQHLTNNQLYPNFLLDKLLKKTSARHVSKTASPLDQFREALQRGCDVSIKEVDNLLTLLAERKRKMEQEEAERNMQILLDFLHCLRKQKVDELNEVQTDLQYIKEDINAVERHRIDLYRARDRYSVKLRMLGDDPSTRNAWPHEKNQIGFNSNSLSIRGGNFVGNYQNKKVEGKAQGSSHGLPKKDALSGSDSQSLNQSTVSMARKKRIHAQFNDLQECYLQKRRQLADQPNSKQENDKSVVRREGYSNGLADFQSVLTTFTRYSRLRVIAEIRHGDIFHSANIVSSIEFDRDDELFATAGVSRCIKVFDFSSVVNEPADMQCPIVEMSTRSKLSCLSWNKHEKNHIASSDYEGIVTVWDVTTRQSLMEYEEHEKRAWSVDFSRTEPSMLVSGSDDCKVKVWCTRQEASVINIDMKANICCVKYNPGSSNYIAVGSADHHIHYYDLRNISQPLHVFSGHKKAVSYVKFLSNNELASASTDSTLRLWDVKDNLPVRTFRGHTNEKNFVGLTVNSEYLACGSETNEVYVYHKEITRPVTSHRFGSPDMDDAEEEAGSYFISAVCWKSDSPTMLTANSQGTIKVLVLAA
# Molecular target: T1, MBP-COP1
# Experiment: pull-down
binder,measurement,value
"His-COR27 (natural protein, Arabidopsis thaliana, UniProt Q8L8T7 1-246, looked up) MVGDYRGRFSSRRFSDDSDDSSDDASSVEGETTSSMYSAGKEYMETEWTNEKHSLYLKSMEASFVDQLYNSLGALGKNENVSESTRFGSGRKPSQEQFKVLHDGFWQKINVKQPEHRINGRHGGNSHEFLRSPWIKHYKPLVKTQIPVTDEPENQVVSSSNGKKGICSSGSASSLKQLSSHSRDHDQISVGEAEVSDQNFVNEGIKGENGSSKKMKTVMMSESSSTDQVVPLNKLLQHDVNLKSVS",binding result,binds
